Results taken from patent US8309523 (VIB VZW, dated 2012).

How the values were obtained:
[1] = biological target: T1, MALT1 (wild type, Flag- and Avi-tagged bio-construct) (human, UniProt Q9UDY8 1-824, Avi-tag biotinylated in vivo by co-expressed BirA); assay: bio-IP from HEK293T cells, anti-TRAF6 immunoblot
T1 construct: also called paracaspase; bio-IP purified MALT1
T1 sequence (looked up): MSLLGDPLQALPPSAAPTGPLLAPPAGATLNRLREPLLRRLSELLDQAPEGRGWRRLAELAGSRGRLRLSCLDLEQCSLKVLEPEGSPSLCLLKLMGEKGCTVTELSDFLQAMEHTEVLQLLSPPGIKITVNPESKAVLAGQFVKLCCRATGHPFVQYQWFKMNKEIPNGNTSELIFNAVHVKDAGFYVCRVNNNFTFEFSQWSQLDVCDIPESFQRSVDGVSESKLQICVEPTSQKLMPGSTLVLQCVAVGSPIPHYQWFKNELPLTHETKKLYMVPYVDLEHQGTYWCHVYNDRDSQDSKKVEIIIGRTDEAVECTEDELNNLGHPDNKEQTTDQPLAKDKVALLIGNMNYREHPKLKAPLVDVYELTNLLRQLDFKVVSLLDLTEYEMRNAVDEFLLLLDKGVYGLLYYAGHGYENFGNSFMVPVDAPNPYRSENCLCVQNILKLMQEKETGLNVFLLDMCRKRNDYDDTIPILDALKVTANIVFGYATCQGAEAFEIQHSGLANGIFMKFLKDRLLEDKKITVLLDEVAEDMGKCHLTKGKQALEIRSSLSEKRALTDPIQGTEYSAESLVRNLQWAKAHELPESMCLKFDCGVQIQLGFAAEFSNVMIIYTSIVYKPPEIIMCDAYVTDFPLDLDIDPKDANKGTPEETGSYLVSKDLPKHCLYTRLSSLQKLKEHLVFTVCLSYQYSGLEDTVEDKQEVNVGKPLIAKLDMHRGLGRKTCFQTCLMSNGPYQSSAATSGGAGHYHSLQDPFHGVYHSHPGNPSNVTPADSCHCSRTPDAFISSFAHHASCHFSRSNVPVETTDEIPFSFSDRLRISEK
Text: (§1) FIG. 5: p76 activates NFκB via TRAF6. […] Panel B) TRAF6 mediates NFκB signaling by p76. Top: NFκB-reporter assays of HEK293T cells transiently expressing MALT1, p76 and mutants or MALT1-C. Bottom: MALT1, p76 or MALT1-C, transiently expressed in HEK293T cells, were purified via bio-IPs and immunoblotted with anti-MALT1 (to show equal expression), anti-TRAF6 and anti-BCL10. Panel C) p76 induces polyubiquitination of IKKγ. Immunoblot analysis of bio-IP and IKKγ-IP of 293T cells transfected with pcD-F-IKKγ and pcd-HA-Ub in combination with indicated Avi-tagged MALT1 constructs. Panel D) BCL10 is not involved in NFκB signaling by p76. NFκB reporter assays of HEK-293T cells transfected with siRNA duplexes against MALT1, BCL10 or GFP (as control) followed by transient transfection with p76. The expression levels were determined by immunoblot with anti-MALT1 and anti-BCL10. NFκB-dependent luciferase activity […] is shown as fold induction of vector-transfected cells and represents the mean+/−S.D. of three independent experiments.
(§2) NFκB activation by MALT1 requires TRAF6 binding via two distinct sites (19), which are both present in the p76 cleavage fragment. Mutation of one TRAF6 binding site, either E313A/E316A (T6Ig-m) or E806A (T6C-m), abolished the potential of p76 to activate NFκB signaling in 293T cells (FIG. 5, Panel B). […] Furthermore, NFκB activation by p76 in 293T cells was associated with increased polyubiquitination of IKKγ (FIG. 5, Panel C).

[2] = biological target: T2, p76 fragment of MALT1 (Avi-tagged expression construct) (human, UniProt Q9UDY8 150-824, Avi-tag biotinylated in vivo by co-expressed BirA); assay: bio-IP from HEK293T cells, anti-TRAF6 immunoblot
T2 construct: domain: p76 cleavage fragment; Lacks the N-terminal death domain; also called MALT1 p76; 76 kDa C-terminal fragment
T2 sequence (looked up): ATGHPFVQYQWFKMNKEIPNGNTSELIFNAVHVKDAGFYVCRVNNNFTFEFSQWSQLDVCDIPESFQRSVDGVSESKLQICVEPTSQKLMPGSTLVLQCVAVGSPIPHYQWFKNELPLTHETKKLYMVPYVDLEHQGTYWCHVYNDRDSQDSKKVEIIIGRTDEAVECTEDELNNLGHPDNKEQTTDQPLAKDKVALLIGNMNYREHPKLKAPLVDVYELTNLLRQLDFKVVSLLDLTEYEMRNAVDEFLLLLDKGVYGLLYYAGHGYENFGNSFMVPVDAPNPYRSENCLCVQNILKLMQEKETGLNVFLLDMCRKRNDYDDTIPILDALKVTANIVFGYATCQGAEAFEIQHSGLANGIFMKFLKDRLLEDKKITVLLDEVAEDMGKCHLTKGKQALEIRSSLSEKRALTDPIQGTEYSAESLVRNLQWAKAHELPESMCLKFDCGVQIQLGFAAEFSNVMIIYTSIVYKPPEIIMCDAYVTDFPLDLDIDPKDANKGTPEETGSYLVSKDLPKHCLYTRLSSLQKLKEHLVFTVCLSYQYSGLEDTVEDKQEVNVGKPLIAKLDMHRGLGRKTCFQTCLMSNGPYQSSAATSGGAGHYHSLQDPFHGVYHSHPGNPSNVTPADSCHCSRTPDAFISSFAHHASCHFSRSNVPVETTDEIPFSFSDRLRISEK
Text: as §1, §2

B1: TRAF6 (other, UniProt Q9Y4K3 1-522, looked up)
chain: MSLLNCENSCGSSQSESDCCVAMASSCSAVTKDDSVGGTASTGNLSSSFMEEIQGYDVEFDPPLESKYECPICLMALREAVQTPCGHRFCKACIIKSIRDAGHKCPVDNEILLENQLFPDNFAKREILSLMVKCPNEGCLHKMELRHLEDHQAHCEFALMDCPQCQRPFQKFHINIHILKDCPRRQVSCDNCAASMAFEDKEIHDQNCPLANVICEYCNTILIREQMPNHYDLDCPTAPIPCTFSTFGCHEKMQRNHLARHLQENTQSHMRMLAQAVHSLSVIPDSGYISEVRNFQETIHQLEGRLVRQDHQIRELTAKMETQSMYVSELKRTIRTLEDKVAEIEAQQCNGIYIWKIGNFGMHLKCQEEEKPVVIHSPGFYTGKPGYKLCMRLHLQLPTAQRCANYISLFVHTMQGEYDSHLPWPFQGTIRLTILDQSEAPVRQNHEEIMDAKPELLAFQRPTIPRNPKGFGYVTFMHLEALRQRTFIKDDTLLVRCEVSTRFDMGSLRREGFQPRSTDAGV
notes: Co-precipitated from lysates of human cell lines
B1: binds [1]; binds [2].
